Here are results for 21 molecules from patent publication US20180051079A1 (MacroGenics, published 2018).

Substitutions are numbered along the chain they refer to. Names may count otherwise.

One assay deals with T1, CD16A V158 (UniProt P08637 17-208, limits assumed).
T1 construct: Only the name and allotype are printed; also called FcγRIIIA
Put plainly: assay not named in Table 4.

The target in a further assay is T2, CD16A F158 (UniProt P08637 17-208, limits assumed).
T2 construct: Only the name and allotype are printed; also called FcγRIIIA
T2 sequence (P08637 17-208 limits assumed): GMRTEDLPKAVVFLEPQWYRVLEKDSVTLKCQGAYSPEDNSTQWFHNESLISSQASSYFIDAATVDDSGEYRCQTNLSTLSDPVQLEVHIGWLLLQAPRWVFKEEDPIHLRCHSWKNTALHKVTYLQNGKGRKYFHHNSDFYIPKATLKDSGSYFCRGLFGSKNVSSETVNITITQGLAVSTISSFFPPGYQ
Put plainly: assay not named in Table 4.

Assay [1] has as its target T3, CD32B (UniProt P31994 43-217, limits assumed).
T3 construct: Only the name is printed; also called FcγRIIB
T3 sequence (looked up): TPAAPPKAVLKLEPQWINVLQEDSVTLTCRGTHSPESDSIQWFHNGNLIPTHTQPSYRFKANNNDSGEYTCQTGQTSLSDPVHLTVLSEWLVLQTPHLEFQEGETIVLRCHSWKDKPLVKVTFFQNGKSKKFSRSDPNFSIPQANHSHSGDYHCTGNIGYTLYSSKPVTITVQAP
Put plainly: assay not named in Table 4.

The target in assay [2] is T3, CD32B. Put plainly: assay not named in Table 4; cell stands under CD16A F158 but fits CD32B (0.94/1.07 = 0.88).

T1 sequence (P08637 17-208 F176V limits assumed): as the sequence (P08637 17-208 limits assumed) above, with F160V counted along it

For the molecule “Fc variant V284M R292P K370N (from UniProt P01857 104-330)”, the binding relative to wild-type Fc was found to be 1.14 with CD16A V158, 1.37 in the assay with CD16A F158 and 0.37 with CD32B [1].

B1: Fc variant D270E G316D P396L R416G (other, UniProt P01857-1 104-330, looked up)
chain: DKTHTCPPCPAPELLGGPSVFLFPPKPKDTLMISRTPEVTCVVVDVSHEEPEVKFNWYVDGVEVHNAKTKPREEQYNSTYRVVSVLTVLHQDWLNDKEYKCKVSNKALPAPIEKTISKAKGQPREPQVYTLPPSRDELTKNQVSLTCLVKGFYPSDIAVEWESNGQPENNYKTTPLVLDSDGSFFLYSKLTVDKSGWQQGNVFSCSVMHEALHNHYTQKSLSLSPGK
notes: domain: Fc; also called D270E P396L G316D R416G
As for B1, the “binding relative to wild-type Fc” value in the assay with CD32B [1] and with CD32B [2] was 1.07 each time.

B2: Fc variant F243L D270E G316D R416G (other, UniProt P01857-1 104-330, looked up)
chain: B1 chain with F23L, L176P
notes: domain: Fc
On to B2, for which the “binding relative to wild-type Fc” value in the assay with CD16A V158 was found to be 1.5; in the assay with CD16A F158, 1.34; with CD32B [1] it was 0.2.

B3: Fc variant P247L D270E N421K (other, UniProt P01857-1 104-330, looked up)
chain: B1 chain with P27L, D96G, L176P, G196R, N201K
notes: domain: Fc
For B3, the “binding relative to wild-type Fc” value with CD16A V158 amounted to 1.89; in the assay with CD16A F158 it was 2.46; in the assay with CD32B [1], 0.58.

B4: Fc variant F243L R292P Y300L P396L (other, UniProt P01857-1 104-330, looked up)
chain: B1 chain with F23L, E50D, R72P, Y80L, D96G, G196R
notes: domain: Fc; also called Mutant 16
For B4, the “binding relative to wild-type Fc” value worked out at 10.1 with CD16A V158, 5.62 with CD16A F158 and 1.07 in the assay with CD32B [1].

B5: Fc variant R255L D270E Y300L P396L (other, UniProt P01857-1 104-330, looked up)
chain: B1 chain with R35L, Y80L, D96G, G196R
notes: domain: Fc
On to B5, for which the “binding relative to wild-type Fc” value amounted to 1.52 with CD16A V158, 1.74 with CD16A F158 and 0.87 with CD32B [1].

B6: Fc variant D270E P396L Q419H (other, UniProt P01857-1 104-330, looked up)
chain: B1 chain with D96G, G196R, Q199H
notes: domain: Fc
In the case of B6, the results for the “binding relative to wild-type Fc” value in the assay with CD16A V158 and with CD32B [1] were 1.64 and 0.68, respectively.

B7: Fc variant D270E K392T P396L (other, UniProt P01857-1 104-330, looked up)
chain: B1 chain with D96G, K172T, G196R
notes: domain: Fc
On to B7, for which the figures for the “binding relative to wild-type Fc” value in the assay with CD16A V158, in the assay with CD16A F158 and in the assay with CD32B [1] were 1.81, 2.28 and 0.79, respectively.

B8: Fc variant F243L D270E K392T P396L (other, UniProt P01857-1 104-330, looked up)
chain: B1 chain with F23L, D96G, K172T, G196R
notes: domain: Fc
Consider B8, for which the figures for the “binding relative to wild-type Fc” value with CD16A V158, with CD16A F158 and with CD32B [1] were 3.16, 2.44 and 0.44, respectively.

B9: Fc variant R255L D270E P396L (other, UniProt P01857-1 104-330, looked up)
chain: B1 chain with R35L, D96G, G196R
notes: domain: Fc
In the case of B9, the “binding relative to wild-type Fc” value with CD16A V158 was determined as 1.34; with CD16A F158 it was 1.65; with CD32B [1] it was 0.87.

B10: Fc variant F243L P247L N421K (other, UniProt P01857-1 104-330, looked up)
chain: B1 chain with F23L, P27L, E50D, D96G, L176P, G196R, N201K
notes: domain: Fc
Take B10: the “binding relative to wild-type Fc” value in the assay with CD16A V158 was 1.89; with CD16A F158, 1.71; in the assay with CD32B [1], 0.17.

B11: Fc variant F243L R255L D270E P396L (other, UniProt P01857-1 104-330, looked up)
chain: B1 chain with F23L, R35L, D96G, G196R
notes: domain: Fc
For B11, the results for the “binding relative to wild-type Fc” value in the assay with CD16A V158, in the assay with CD16A F158 and with CD32B [1] were 1.75, 1.64 and 0.38, respectively.

B12: Fc variant F243L R292P V305I P396L (other, UniProt P01857-1 104-330, looked up)
chain: B1 chain with F23L, E50D, R72P, V85I, D96G, G196R
notes: domain: Fc; also called Mutant 17
On to B12, for which the “binding relative to wild-type Fc” value with CD16A V158 is 5.37; in the assay with CD16A F158, 2.53; with CD32B [1], 0.4.

B13: Fc variant F243I R292P Y300L V305I P396L (other, UniProt P01857-1 104-330, looked up)
chain: B1 chain with F23I, E50D, R72P, Y80L, V85I, D96G, G196R
notes: domain: Fc; Written as printed (F243I); may be a misprint of F243L
As to B13, the “binding relative to wild-type Fc” value was determined as 3.12 with CD16A F158 and 1.05 with CD32B [1].

B14: Fc variant R292P V305I P396L (other, UniProt P01857-1 104-330, looked up)
chain: B1 chain with E50D, R72P, V85I, D96G, G196R
notes: domain: Fc; also called Mutant 15
Regarding B14, the results for the “binding relative to wild-type Fc” value with CD16A V158, in the assay with CD16A F158 and with CD32B [1] were 1.85, 1.9 and 0.92, respectively.

B15: Fc variant F243L R292P Y300L V305I P396L (other, UniProt P01857-1 104-330, looked up)
chain: B1 chain with F23L, E50D, R72P, Y80L, V85I, D96G, G196R
notes: domain: Fc; also called Mutant 18
Take B15: the “binding relative to wild-type Fc” value with CD16A V158 worked out at 10.1; with CD16A F158 it was 8.25; in the assay with CD32B [1], 1.38.

B16: Fc variant F243L P247L D270E N421K (other, UniProt P01857-1 104-330, looked up)
chain: B1 chain with F23L, P27L, D96G, L176P, G196R, N201K
notes: domain: Fc
Regarding B16, the “binding relative to wild-type Fc” value with CD16A V158 came out at 2.3; with CD16A F158 it was 3.45; with CD32B [1] it was 0.32.

B17: Fc variant F243L R292P V305I (other, UniProt P01857-1 104-330, looked up)
chain: B1 chain with F23L, E50D, R72P, V85I, D96G, L176P, G196R
notes: domain: Fc; also called Mutant 13*
Take B17: the entries for the “binding relative to wild-type Fc” value with CD16A V158 and in the assay with CD16A F158 were 2.56 and 1.43, respectively.

B18: Fc variant F243L D270E P396L Q419H (other, UniProt P01857-1 104-330, looked up)
chain: B1 chain with F23L, D96G, G196R, Q199H
notes: domain: Fc
As for B18, the figures for the “binding relative to wild-type Fc” value with CD16A V158, with CD16A F158 and in the assay with CD32B [1] were 1.46, 1.15 and 0.26, respectively.

B19: Fc variant R255L D270E R292G P396L (other, UniProt P01857-1 104-330, looked up)
chain: B1 chain with R35L, R72G, D96G, G196R
notes: domain: Fc
With B19, the “binding relative to wild-type Fc” value with CD32B [1] is 0.65.

B20: Fc variant D270E G316D R416G (other, UniProt P01857-1 104-330, looked up)
chain: B1 chain with L176P
notes: domain: Fc
For B20, the “binding relative to wild-type Fc” value with CD16A V158 turned out to be 2.18; in the assay with CD16A F158, 2.49; with CD32B [1], 0.78.
